This is an account of results in FireProtDB (doi:10.1016/0022-2836(92)90906-z).

The labels stand for the following.
B1: Ribonuclease, P00648 (parent)
chain: MMKMEGIALKKRLSWISVCLLVLVSAAGMLFSTAAKTETSSHKAHTEAQVINTFDGVADYLQTYHKLPDNYITKSEAQALGWVASKGNLADVAPGKSIGGDIFSNREGKLPGKSGRTWREADINYTSGFRNSDRILYSSDWLIYKTTDHYQTFTKIR

This data set covers variants of B1. Particulars: Bacillus amyloliquefaciens; pH 6.3; 25 °C; Urea; Fluorescence; MES 1.00 M; NaCl 613 mM; reversible: yes; structure 1BNI; whole UniProt chain shown.

Turning to T53P, the “ddG of mutation (higher = less stable)” value turned out to be 3.3 kcal/mol, the denaturant m value was 1.83 kcal/mol/M, the “denaturant midpoint (higher = more stable)” value (“denaturant midpoint” for short) was found to be 2.99 M and the unfolding free energy came out at 5.5 kcal/mol.
Take H65S W141L: the “ddG of mutation (higher = less stable)” value was found to be 2.8 kcal/mol, the denaturant m value amounted to 1.86 kcal/mol/M, the “denaturant midpoint” value is 3.24 M and the unfolding free energy worked out at 6 kcal/mol.
As to Y64G, the “ddG of mutation (higher = less stable)” value is 4 kcal/mol, the denaturant m value was 1.91 kcal/mol/M, the “denaturant midpoint” value was 2.5 M and the unfolding free energy was 4.8 kcal/mol.
The matching figures for Y64S: 2 kcal/mol, 2.08 kcal/mol/M, 3.25 M and 6.8 kcal/mol.
In the case of E76G, the “ddG of mutation (higher = less stable)” value was 2.2 kcal/mol, the denaturant m value turned out to be 1.81 kcal/mol/M, the “denaturant midpoint” value worked out at 3.64 M and the unfolding free energy was found to be 6.6 kcal/mol.
The matching figures for E76A: 1.2 kcal/mol, 1.94 kcal/mol/M, 3.93 M and 7.6 kcal/mol.
E76S: the “ddG of mutation (higher = less stable)” value was determined as 1.2 kcal/mol, the denaturant m value came to 1.93 kcal/mol/M, the “denaturant midpoint” value is 3.94 M and the unfolding free energy was determined as 7.6 kcal/mol.
Consider D59S, for which the “ddG of mutation (higher = less stable)” value is 0.9 kcal/mol, the denaturant m value is 1.85 kcal/mol/M, the “denaturant midpoint” value amounted to 4.29 M and the unfolding free energy came out at 7.9 kcal/mol.
The matching figures for D59G: 0.2 kcal/mol, 1.87 kcal/mol/M, 3.97 M and 8.6 kcal/mol.
Q78A: the “ddG of mutation (higher = less stable)” value was 0.3 kcal/mol, the denaturant m value is 1.83 kcal/mol/M, the “denaturant midpoint” value was found to be 4.62 M and the unfolding free energy stood at 8.5 kcal/mol.
The matching figures for Q78S: -0.3 kcal/mol, 2.05 kcal/mol/M, 4.44 M and 9.1 kcal/mol.
In the case of Q78G, the “ddG of mutation (higher = less stable)” value came to 1.1 kcal/mol, the denaturant m value was determined as 1.89 kcal/mol/M, the “denaturant midpoint” value worked out at 4.07 M and the unfolding free energy was 7.7 kcal/mol.
The like results for D55S were, in that order, 0.7 kcal/mol, 1.99 kcal/mol/M, 4.07 M and 8.1 kcal/mol.
The like results for D55G were, in that order, 1.3 kcal/mol, 1.89 kcal/mol/M, 3.97 M and 7.5 kcal/mol.
For the variant H65A W141L, the “ddG of mutation (higher = less stable)” value was determined as 2.3 kcal/mol, the denaturant m value amounted to 1.94 kcal/mol/M, the “denaturant midpoint” value came to 3.36 M and the unfolding free energy is 6.5 kcal/mol.
With T73D, the “ddG of mutation (higher = less stable)” value was 0 kcal/mol, the denaturant m value stood at 1.95 kcal/mol/M, the “denaturant midpoint” value was 4.53 M and the unfolding free energy was 8.8 kcal/mol.
The matching figures for H65R W141L: 1.6 kcal/mol, 2.06 kcal/mol/M, 3.48 M and 7.2 kcal/mol.
For the variant G81A, the “ddG of mutation (higher = less stable)” value came out at 2.7 kcal/mol, the denaturant m value was 2.06 kcal/mol/M, the “denaturant midpoint” value was found to be 2.97 M and the unfolding free energy is 6.1 kcal/mol.
The like results for G81K were, in that order, 2.7 kcal/mol, 2.06 kcal/mol/M, 2.97 M and 6.1 kcal/mol.
The matching figures for G81T: 3.2 kcal/mol, 1.96 kcal/mol/M, 2.84 M and 5.6 kcal/mol.
The matching figures for G81N: 2.7 kcal/mol, 1.94 kcal/mol/M, 3.16 M and 6.1 kcal/mol.
As for G81D, the “ddG of mutation (higher = less stable)” value turned out to be 3.2 kcal/mol, the denaturant m value stood at 1.99 kcal/mol/M, the “denaturant midpoint” value worked out at 2.83 M and the unfolding free energy was 5.6 kcal/mol.
With G81S, the “ddG of mutation (higher = less stable)” value was found to be 2.9 kcal/mol, the denaturant m value is 2.03 kcal/mol/M, the “denaturant midpoint” value was found to be 2.93 M and the unfolding free energy was determined as 5.9 kcal/mol.
The like results for G81H were, in that order, 2.3 kcal/mol, 2.02 kcal/mol/M, 3.21 M and 6.5 kcal/mol.
The like results for H65A were, in that order, 1.9 kcal/mol, 1.91 kcal/mol/M, 3.62 M and 6.9 kcal/mol.
For the variant H65N, the “ddG of mutation (higher = less stable)” value came to 1.8 kcal/mol, the denaturant m value turned out to be 1.89 kcal/mol/M, the “denaturant midpoint” value is 3.71 M and the unfolding free energy was 7 kcal/mol.
In the case of H65G, the “ddG of mutation (higher = less stable)” value is 0.7 kcal/mol, the denaturant m value is 1.91 kcal/mol/M, the “denaturant midpoint” value turned out to be 4.21 M and the unfolding free energy is 8.1 kcal/mol.
The like results for H65R were, in that order, 1 kcal/mol, 1.97 kcal/mol/M, 3.97 M and 7.8 kcal/mol.
In the case of H65K, the “ddG of mutation (higher = less stable)” value turned out to be 0.9 kcal/mol, the denaturant m value turned out to be 1.99 kcal/mol/M, the “denaturant midpoint” value came to 3.96 M and the unfolding free energy was 7.9 kcal/mol.
The like results for H65D were, in that order, 2.2 kcal/mol, 2.04 kcal/mol/M, 3.26 M and 6.6 kcal/mol.
In the case of H65S, the “ddG of mutation (higher = less stable)” value was 2.1 kcal/mol, the denaturant m value was found to be 1.96 kcal/mol/M, the “denaturant midpoint” value was 3.4 M and the unfolding free energy is 6.7 kcal/mol.
The like results for T63A were, in that order, 0.5 kcal/mol, 1.88 kcal/mol/M, 4.43 M and 8.3 kcal/mol.
Consider K74G, for which the “ddG of mutation (higher = less stable)” value was -0.2 kcal/mol, the denaturant m value was determined as 2.11 kcal/mol/M, the “denaturant midpoint” value stood at 4.29 M and the unfolding free energy came out at 9 kcal/mol.
The matching figures for H65K W141L: 2.7 kcal/mol, 1.8 kcal/mol/M, 3.37 M and 6.1 kcal/mol.
The matching figures for S75G: 0.5 kcal/mol, 1.88 kcal/mol/M, 4.34 M and 8.3 kcal/mol.
The like results for S75A were, in that order, -0.6 kcal/mol, 1.98 kcal/mol/M, 4.78 M and 9.4 kcal/mol.
